Measured values from patent publication US20050064507.

How the values were obtained:
[1] = molecular target: T1, FLJ20574 peptide GENVLKKSMKSRVKG (SEQ ID NO:113) (not fully specified)
T1 chain: GENVLKKSMKSRVKG

[2] = molecular target: T2, calcium channel, voltage-dependent, L type, alpha peptide RDIRQSPKRGFLRSASLGRR (SEQ ID NO:147) (not fully specified)
T2 chain: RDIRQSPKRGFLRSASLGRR

[3] = molecular target: T3, KCNH2 peptide RQRKRKLSFRRRTDKD (SEQ ID NO:86) (not fully specified)
T3 chain: RQRKRKLSFRRRTDKD

[4] = molecular target: T4, NIK peptide TEGKMARVAWKGKRRSKARK (SEQ ID NO:164) (not fully specified)
T4 chain: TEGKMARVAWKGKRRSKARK

[5] = molecular target: T5, PPP1R14A peptide QKRHARVTVKYDRRE (SEQ ID NO:107) (not fully specified)
T5 chain: QKRHARVTVKYDRRE

[6] = molecular target: T6, dag kinase iota peptide NRKKKRTSFKRKA (SEQ ID NO:117) (not fully specified)
T6 chain: NRKKKRTSFKRKA

[7] = molecular target: T7, SDPR peptide EKIKRSSLKKVDSLKK (SEQ ID NO:104) (not fully specified)
T7 chain: EKIKRSSLKKVDSLKK

[8] = molecular target: T8, p47phox peptide QAQRQIKRGAPPRRSSIRNA (SEQ ID NO:146) (not fully specified)
T8 chain: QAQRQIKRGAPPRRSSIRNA

[9] = molecular target: T9, Urotensin-2 receptor peptide LYARLARAYRRSQRASFKRA (SEQ ID NO:159) (not fully specified)
T9 chain: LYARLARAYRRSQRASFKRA

[10] = molecular target: T10, MARCKS peptide PSPSNETPKKKKKRFSFKKS (SEQ ID NO:157) (not fully specified)
T10 chain: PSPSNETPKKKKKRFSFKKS

[11] = molecular target: T11, gravin peptide KKFFTQGWAGWRKKTSFRKP (SEQ ID NO:154) (not fully specified)
T11 chain: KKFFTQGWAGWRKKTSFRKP

[12] = molecular target: T12, pleckstrin 1 peptide KAIKAIEGGQKFARKSTRRS (SEQ ID NO:126) (not fully specified)
T12 chain: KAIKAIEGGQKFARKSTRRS

[13] = molecular target: T13, slp4 peptide TYLLPDKSRQGKRKTSIKRD (SEQ ID NO:153) (not fully specified)
T13 chain: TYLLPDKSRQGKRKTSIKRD

[14] = molecular target: T14, plectin peptide PLKEKKRERKTSSKSSVRKR (SEQ ID NO:125) (not fully specified)
T14 chain: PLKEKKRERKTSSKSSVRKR

[15] = molecular target: T15, AF15q14 peptide GFLNEPLSSKSQRRKSLKLK (SEQ ID NO:132) (not fully specified)
T15 chain: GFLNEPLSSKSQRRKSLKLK

[16] = molecular target: T16, NR4A3 peptide KEVVRTDSLKGRRGR (SEQ ID NO:109) (not fully specified)
T16 chain: KEVVRTDSLKGRRGR

[17] = molecular target: T17, NF1 peptide AGSFKRNSIKKIV (SEQ ID NO:102) (not fully specified)
T17 chain: AGSFKRNSIKKIV

[18] = molecular target: T18, ASIP peptide KKRSSKKEASMKKVVRP (SEQ ID NO:97) (not fully specified)
T18 chain: KKRSSKKEASMKKVVRP

[19] = molecular target: T19, MacMARCKS peptide KKKFSFKKPFKLSGLSFKRN (SEQ ID NO:162) (not fully specified)
T19 chain: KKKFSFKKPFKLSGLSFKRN

[20] = molecular target: T20, cytohesin-2 peptide VDPFYEMLAARKKRISVKKK (SEQ ID NO:150) (not fully specified)
T20 chain: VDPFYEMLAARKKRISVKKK

[21] = molecular target: T21, ankyrin R peptide DLIEGRKGAQIVKRASLKRG (SEQ ID NO:152) (not fully specified)
T21 chain: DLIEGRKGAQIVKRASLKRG

[22] = molecular target: T22, CREB1 peptide EILSRRPSYRKILND (SEQ ID NO:106) (not fully specified)
T22 chain: EILSRRPSYRKILND

[23] = molecular target: T23, PARIS1 peptide EYLERRASRRRAV (SEQ ID NO:89) (not fully specified)
T23 chain: EYLERRASRRRAV

[24] = molecular target: T24, MYBPC3 peptide LLKKRDSFRTPRDSKLE (SEQ ID NO:103) (not fully specified)
T24 chain: LLKKRDSFRTPRDSKLE

[25] = molecular target: T25, LIMK2 peptide KATTKKRTLRKNDRK (SEQ ID NO:108) (not fully specified)
T25 chain: KATTKKRTLRKNDRK

[26] = molecular target: T26, ANK1 peptide AQIVKRASLKRGKQ (SEQ ID NO:90) (not fully specified)
T26 chain: AQIVKRASLKRGKQ

[27] = molecular target: T27, ribosomal protein S6 peptide AKRRRLSSLRASTSK (SEQ ID NO:120) (not fully specified)
T27 chain: AKRRRLSSLRASTSK

[28] = molecular target: T28, pkc-zeta peptide GLPAPGEDKSIYRRGSRRWR (SEQ ID NO:167) (not fully specified)
T28 chain: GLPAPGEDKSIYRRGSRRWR

[29] = molecular target: T29, CACNA1C peptide RGFLRSASLGRRASFHLE (SEQ ID NO:96) (not fully specified)
T29 chain: RGFLRSASLGRRASFHLE

[30] = molecular target: T30, p164-RhoGEF peptide PRLIRRGSKKRPAR (SEQ ID NO:82) (not fully specified)
T30 chain: PRLIRRGSKKRPAR

[31] = molecular target: T31, SYTL4 peptide RQGKRKTSIKRDTVNPL (SEQ ID NO:87) (not fully specified)
T31 chain: RQGKRKTSIKRDTVNPL

B1: PKC-zeta (protein)
chain: MPSRTGPKMEGSGGRVRLKAHYGGDIFITSVDAATTFEELCEEVRDMCRLHQQHPLTLKWVDSEGDPCTVSSQMELEEAFRLARQCRDEGLIIHVFPSTPEQPGLPCPGEDKSIYRRGARRWRKLYRANGHLFQAKRFNRRAYCGQCSERIWGLARQGYRCINCKLLVHKRCHGLVPLTCRKHMDSVMPSQEPPVDDKNEDADLPSEETDGIAYISSSRKHDSIKDDSEDLKPVIDGMDGIKISQGLGLQDFDLIRVIGRGSYAKVLLVRLKKNDQIYAMKVVKKELVHDDEDIDWVQTEKHVFEQASSNPFLVGLHSCFQTTSRLFLVIEYVNGGDLMFHMQRQRKLPEEHARFYAAEICIALNFLHERGIIYRDLKLDNVLLDADGHIKLTDYGMCKEGLGPGDTTSTFCGTPNYIAPEILRGEEYGFSVDWWALGVLMFEMMAGRSPFDIITDNPDMNTEDYLFQVILEKPIRIPRFLSVKASHVLKGFLNKDPKERLGCRPQTGFSDIKSHAFFRSIDWDLLEKKQALPPFQPQITDDYGLDNFDTQFTSEPVQLTPDDEDAIKRIDQSEFEGFEYINPLLLSTEESV
[1]
  in vitro phosphorylation (% of best substrate): 1
[2]
  in vitro phosphorylation, 1 uM peptide (% of best substrate): 28
  in vitro phosphorylation, 10 uM peptide (% of best substrate): 34
[3]
  in vitro phosphorylation (% of best substrate): 28
[4]
  in vitro phosphorylation, 1 uM peptide (% of best substrate): 3
  in vitro phosphorylation, 10 uM peptide (% of best substrate): 2
[5]
  in vitro phosphorylation (% of best substrate): 1
[6]
  in vitro phosphorylation, 1 uM peptide (% of best substrate): 20
  in vitro phosphorylation, 10 uM peptide (% of best substrate): 11
[7]
  in vitro phosphorylation (% of best substrate): 3
[8]
  in vitro phosphorylation, 1 uM peptide (% of best substrate): 32
  in vitro phosphorylation, 10 uM peptide (% of best substrate): 56
[9]
  in vitro phosphorylation, 1 uM peptide (% of best substrate): 25
  in vitro phosphorylation, 10 uM peptide (% of best substrate): 41
[10]
  in vitro phosphorylation, 1 uM peptide (% of best substrate): 3
  in vitro phosphorylation, 10 uM peptide (% of best substrate): 6
[11]
  in vitro phosphorylation, 1 uM peptide (% of best substrate): 27
  in vitro phosphorylation, 10 uM peptide (% of best substrate): 23
[12]
  in vitro phosphorylation, 1 uM peptide (% of best substrate): 46
  in vitro phosphorylation, 10 uM peptide (% of best substrate): 56
[13]
  in vitro phosphorylation, 1 uM peptide (% of best substrate): 6
  in vitro phosphorylation, 10 uM peptide (% of best substrate): 13
[14]
  in vitro phosphorylation, 1 uM peptide (% of best substrate): 13
  in vitro phosphorylation, 10 uM peptide (% of best substrate): 12
[15]
  in vitro phosphorylation, 1 uM peptide (% of best substrate): 19
  in vitro phosphorylation, 10 uM peptide (% of best substrate): 61
[16]
  in vitro phosphorylation (% of best substrate): 2
[17]
  in vitro phosphorylation (% of best substrate): 2
[18]
  in vitro phosphorylation (% of best substrate): 1
[19]
  in vitro phosphorylation, 1 uM peptide (% of best substrate): 7
  in vitro phosphorylation, 10 uM peptide (% of best substrate): 4
[20]
  in vitro phosphorylation, 1 uM peptide (% of best substrate): 3
  in vitro phosphorylation, 10 uM peptide (% of best substrate): 6
[21]
  in vitro phosphorylation, 1 uM peptide (% of best substrate): 4
  in vitro phosphorylation, 10 uM peptide (% of best substrate): 9
[22]
  in vitro phosphorylation (% of best substrate): 15
[23]
  in vitro phosphorylation (% of best substrate): 14
[24]
  in vitro phosphorylation (% of best substrate): 8
[25]
  in vitro phosphorylation (% of best substrate): 1
[26]
  in vitro phosphorylation (% of best substrate): 5
[27]
  in vitro phosphorylation, 1 uM peptide (% of best substrate): 43
  in vitro phosphorylation, 10 uM peptide (% of best substrate): 34
[28]
  in vitro phosphorylation, 1 uM peptide (% of best substrate): 5
  in vitro phosphorylation, 10 uM peptide (% of best substrate): 37
[29]
  in vitro phosphorylation (% of best substrate): 22
[30]
  in vitro phosphorylation (% of best substrate): 38
[31]
  in vitro phosphorylation (% of best substrate): 3
